Measured values as given in patent US20240148898A1 (CELLEMEDY, published 2024).

Tests used:
[1] = biological target: T1, human transferrin receptor (human, UniProt P02786 89-760, limits assumed); experiment: MST (Monolith NT.115), His-tag-dye-labelled protein, TfR titrated
T1 construct: also called TfR Human
Procedure: (§1) First, 100 μl of dye that specifically binds to a hexa-His tag (RED-tris-NTA 2nd Generation Dye) was prepared at a concentration of 50 nM, along with 100 μl of the produced protein at a concentration of 200 nM, followed by mixing the same and incubating at room temperature for 30 minutes. The incubated product was centrifuged at 13000 rpm for 10 minutes at 4° C. by a centrifuge, thus to separate the supernatant and obtain a dye-labeled protein.
(§2) Then, 25 μl of 9.65 μM transferrin receptor was added to the 1st PCR tube; 10 μl of PBS-T (PBS+0.5% tween 20) buffer was added to 2nd to 16th PCR tubes; 10 μl of transferrin in the 1st PCR tube was transferred to the 2nd PCR tube; and 10 μl was again transferred from the 2nd PCR tube to the 3rd PCR tube. Likewise, this procedure was continued up to the 16th tube thus to perform ½ dilution in a sequential order so that each of the 2nd to 16th PCR tubes becomes 20 μl.
(§3) Thereafter, 10 μl of the dye-labeled protein was added to each PCR tube, and the reaction was performed at room temperature for 1 hour.

[2] = biological target: T2, mouse transferrin receptor (mouse, UniProt Q62351 89-763, limits assumed); experiment: as above
T2 construct: also called TfR Mouse
Procedure: as §1, §2, §3

[3] = biological target: T3, transferrin receptor (TfR), species not stated; experiment: Microscale Thermophoresis (MST) with the transferrin receptor, Example 5; species of TfR not given on the sheet or in the legend (value coincides with the Mouse TfR row of Table 5)
T3 construct: also called the transferrin receptor
T3 sequence (P02786 whole entry): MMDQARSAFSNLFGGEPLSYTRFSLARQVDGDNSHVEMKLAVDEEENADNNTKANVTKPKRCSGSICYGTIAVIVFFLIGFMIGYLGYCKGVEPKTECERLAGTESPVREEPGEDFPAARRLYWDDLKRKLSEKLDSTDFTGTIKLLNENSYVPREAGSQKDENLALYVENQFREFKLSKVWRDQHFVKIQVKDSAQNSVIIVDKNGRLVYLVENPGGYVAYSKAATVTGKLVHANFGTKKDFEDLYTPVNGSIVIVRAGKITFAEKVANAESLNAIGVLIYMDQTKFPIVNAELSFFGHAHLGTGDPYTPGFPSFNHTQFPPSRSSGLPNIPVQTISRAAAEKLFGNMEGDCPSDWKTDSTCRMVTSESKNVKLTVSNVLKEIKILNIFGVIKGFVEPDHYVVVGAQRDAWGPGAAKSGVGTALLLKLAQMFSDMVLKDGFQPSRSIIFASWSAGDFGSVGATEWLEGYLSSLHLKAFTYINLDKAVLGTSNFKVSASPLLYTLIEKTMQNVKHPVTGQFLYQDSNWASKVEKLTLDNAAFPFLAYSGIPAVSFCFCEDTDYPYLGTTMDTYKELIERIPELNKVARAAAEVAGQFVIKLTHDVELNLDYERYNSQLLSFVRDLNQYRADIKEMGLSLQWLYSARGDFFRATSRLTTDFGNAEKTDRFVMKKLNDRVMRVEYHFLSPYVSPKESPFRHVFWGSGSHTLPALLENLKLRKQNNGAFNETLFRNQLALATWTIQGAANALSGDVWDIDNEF

T2 sequence (Q62351 89-763 limits assumed): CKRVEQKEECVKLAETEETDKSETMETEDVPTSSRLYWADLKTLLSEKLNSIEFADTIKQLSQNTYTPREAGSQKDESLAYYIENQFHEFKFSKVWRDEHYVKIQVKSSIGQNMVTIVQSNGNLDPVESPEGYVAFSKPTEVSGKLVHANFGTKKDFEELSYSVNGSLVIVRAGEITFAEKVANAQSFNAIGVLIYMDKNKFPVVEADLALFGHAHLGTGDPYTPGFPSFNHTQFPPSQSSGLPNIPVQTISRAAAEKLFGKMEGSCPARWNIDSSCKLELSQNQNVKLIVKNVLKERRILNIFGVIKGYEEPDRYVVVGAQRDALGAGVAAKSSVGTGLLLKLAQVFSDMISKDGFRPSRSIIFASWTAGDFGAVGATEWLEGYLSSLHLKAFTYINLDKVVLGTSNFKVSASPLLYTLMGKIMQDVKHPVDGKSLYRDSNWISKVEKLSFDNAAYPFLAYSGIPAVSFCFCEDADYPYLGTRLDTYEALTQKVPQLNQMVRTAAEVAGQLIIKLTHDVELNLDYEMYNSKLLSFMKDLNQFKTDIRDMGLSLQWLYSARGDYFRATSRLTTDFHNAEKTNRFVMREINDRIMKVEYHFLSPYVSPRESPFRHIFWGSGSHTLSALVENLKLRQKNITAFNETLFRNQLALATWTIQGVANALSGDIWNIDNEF
T1 sequence (P02786 89-760 limits assumed): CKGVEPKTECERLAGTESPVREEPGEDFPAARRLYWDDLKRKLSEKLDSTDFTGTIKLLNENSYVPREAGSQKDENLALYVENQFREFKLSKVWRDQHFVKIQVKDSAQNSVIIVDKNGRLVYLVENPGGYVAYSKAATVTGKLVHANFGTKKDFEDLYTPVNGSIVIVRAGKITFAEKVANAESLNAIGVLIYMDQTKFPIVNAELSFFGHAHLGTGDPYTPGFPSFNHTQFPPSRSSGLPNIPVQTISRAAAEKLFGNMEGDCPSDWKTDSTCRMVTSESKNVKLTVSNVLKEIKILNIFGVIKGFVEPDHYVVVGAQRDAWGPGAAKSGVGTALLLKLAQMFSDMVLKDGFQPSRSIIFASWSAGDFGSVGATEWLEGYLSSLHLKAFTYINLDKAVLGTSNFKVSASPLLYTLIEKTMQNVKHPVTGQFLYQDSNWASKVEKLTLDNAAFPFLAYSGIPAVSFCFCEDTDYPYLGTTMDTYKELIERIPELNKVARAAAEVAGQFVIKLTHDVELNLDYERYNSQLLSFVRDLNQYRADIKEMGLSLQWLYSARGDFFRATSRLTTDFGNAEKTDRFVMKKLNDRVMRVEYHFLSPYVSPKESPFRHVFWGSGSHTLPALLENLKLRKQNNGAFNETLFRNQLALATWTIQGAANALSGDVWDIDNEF

Binder	Kd [1] [nM]	Kd [2] [nM]	Kd [3] [nM]
CD-gp100-huHF (other, also called CD-loop-gp100; huHF-CD-gp100) HHHHHHMTTASTSQVRQNYHQDSEAAINRQINLELYASYVYLSMSYYFDRDDVALKNFAKYFLHQSHEEREHAEKLMKLQNQRGGRIFLQDIKKPDCDDWESGLNAMECALHLEKNVNQSLLELHKLATDKNDKVPRNQDWLPHLCDFIETHYLNEQVKAIKELGDHVTNLRKMGAPESGLAEYLFDKHTLGDSDNES	4.89	15.9	–
CD-AH1-huHF (other, also called huHF-CD loop-AH1; CD-loop-AH1) HHHHHHMTTASTSQVRQNYHQDSEAAINRQINLELYASYVYLSMSYYFDRDDVALKNFAKYFLHQSHEEREHAEKLMKLQNQRGGRIFLQDIKKPDCDDWESGLNAMECALHLEKNVNQSLLELHKLATDKNDSPSYVYHQFPHLCDFIETHYLNEQVKAIKELGDHVTNLRKMGAPESGLAEYLFDKHTLGDSDNES	3.45	–	–
DE-AH1-huHF (other, also called AH1-huHF (DE loop); TSA insertion site DE, AH1) HHHHHHMTTASTSQVRQNYHQDSEAAINRQINLELYASYVYLSMSYYFDRDDVALKNFAKYFLHQSHEEREHAEKLMKLQNQRGGRIFLQDIKKPDCDDWESGLNAMECALHLEKNVNQSLLELHKLATDKNDPHLCDFIETHYLNEQVKAIKELGDHVTNLRKMGAPESPSYVYHQFSGLAEYLFDKHTLGDSDNES	6.11	–	–
NA-gp100-huHF (other, One monomer is given; the particle is a self-assembled 24-mer. In the MST assay the His tag carried RED-tris-NTA dye non-covalently., also called gp100 fused between N-terminus and A helix; TSA insertion site NA, gp100) MHHHHHHTTASTSKVPRNQDWLQVRQNYHQDSEAAINRQINLELYASYVYLSMSYYFDRDDVALKNFAKYFLHQSHEEREHAEKLMKLQNQRGGRIFLQDIKKPDCDDWESGLNAMECALHLEKNVNQSLLELHKLATDKNDPHLCDFIETHYLNEQVKAIKELGDHVTNLRKMGAPESGLAEYLFDKHTLGDSDNES	152	–	–
BC-gp100-huHF (other, also called gp100-huHF (BC loop); TSA insertion site BC, gp100) HHHHHHMTTASTSQVRQNYHQDSEAAINRQINLELYASYVYLSMSYYFDRDDVALKNFAKYFLHQSHEEREHAEKLMKLQNQRGGRIFLQDIKKPDCDDKVPRNQDWLWESGLNAMECALHLEKNVNQSLLELHKLATDKNDPHLCDFIETHYLNEQVKAIKELGDHVTNLRKMGAPESGLAEYLFDKHTLGDSDNES	14	48	–
BC-AH1-huHF (other, also called AH1-huHF (BC loop); TSA insertion site BC, AH1) HHHHHHMTTASTSQVRQNYHQDSEAAINRQINLELYASYVYLSMSYYFDRDDVALKNFAKYFLHQSHEEREHAEKLMKLQNQRGGRIFLQDIKKPDCDDSPSYVYHQFWESGLNAMECALHLEKNVNQSLLELHKLATDKNDPHLCDFIETHYLNEQVKAIKELGDHVTNLRKMGAPESGLAEYLFDKHTLGDSDNES	107	–	–
EC-gp100-huHF (other, One monomer is given; the particle is a self-assembled 24-mer. In the MST assay the His tag carried RED-tris-NTA dye non-covalently., also called gp100 fused between E helix and C-terminus; TSA insertion site EC, gp100) MHHHHHHEFTTASTSQVRQNYHQDSEAAINRQINLELYASYVYLSMSYYFDRDDVALKNFAKYFLHQSHEEREHAEKLMKLQNQRGGRIFLQDIKKPDCDDWESGLNAMECALHLEKNVNQSLLELHKLATDKNDPHLCDFIETHYLNEQVKAIKELGDHVTNLRKMGAPESGLAEYLFDKHTLGDSKVPRNQDWLDNES	5.68	–	–
DE-gp100-huHF (other, One monomer is given; the particle is a self-assembled 24-mer. In the MST assay the His tag carried RED-tris-NTA dye non-covalently., also called huHF-DE-gp100; gp100-huHF (DE loop)) MHHHHHHLETTASTSQVRQNYHQDSEAAINRQINLELYASYVYLSMSYYFDRDDVALKNFAKYFLHQSHEEREHAEKLMKLQNQRGGRIFLQDIKKPDCDDWESGLNAMECALHLEKNVNQSLLELHKLATDKNDPHLCDFIETHYLNEQVKAIKELGDHVTNLRKMGAPEGSKVPRNQDWLEFSGLAEYLFDKHTLGDSDNES	9.78	30.5	30.5
AB-gp100-huHF (other, also called gp100-huHF (AB loop); TSA insertion site AB, gp100) HHHHHHMTTASTSQVRQNYHQDSEAAINRQINLELYASYVYLSMSYYFDRDDKVPRNQDWLVALKNFAKYFLHQSHEEREHAEKLMKLQNQRGGRIFLQDIKKPDCDDWESGLNAMECALHLEKNVNQSLLELHKLATDKNDPHLCDFIETHYLNEQVKAIKELGDHVTNLRKMGAPESGLAEYLFDKHTLGDSDNES	29.7	40.8	–
AB-AH1-huHF (other, also called AH1-huHF (AB loop); TSA insertion site AB, AH1) HHHHHHMTTASTSQVRQNYHQDSEAAINRQINLELYASYVYLSMSYYFDRDDSPSYVYHQFVALKNFAKYFLHQSHEEREHAEKLMKLQNQRGGRIFLQDIKKPDCDDWESGLNAMECALHLEKNVNQSLLELHKLATDKNDPHLCDFIETHYLNEQVKAIKELGDHVTNLRKMGAPESGLAEYLFDKHTLGDSDNES	10.9	–	–
